Assay [1] concerns the target T1, HSV UL42 (processivity factor of HSV DNA polymerase) (herpes simplex virus (HSV), UniProt P10226 1-488).
T1 sequence: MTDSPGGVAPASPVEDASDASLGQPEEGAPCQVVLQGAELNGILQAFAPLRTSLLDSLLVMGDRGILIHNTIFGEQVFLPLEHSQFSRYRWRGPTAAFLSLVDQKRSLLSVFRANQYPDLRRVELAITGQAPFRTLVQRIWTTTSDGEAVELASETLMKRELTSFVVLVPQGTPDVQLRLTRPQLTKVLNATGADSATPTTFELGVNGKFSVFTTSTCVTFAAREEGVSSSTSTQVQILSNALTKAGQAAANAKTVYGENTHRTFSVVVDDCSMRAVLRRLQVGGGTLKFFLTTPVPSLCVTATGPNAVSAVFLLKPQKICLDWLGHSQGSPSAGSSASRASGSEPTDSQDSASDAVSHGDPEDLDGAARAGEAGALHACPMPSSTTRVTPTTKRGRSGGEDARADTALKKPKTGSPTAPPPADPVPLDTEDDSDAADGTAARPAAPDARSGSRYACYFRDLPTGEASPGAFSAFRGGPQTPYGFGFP
Description: cell-based or functional assay.

Assay [2] has as its target T1, HSV UL42 (processivity factor of HSV …). The experiment in a line: cell-based or functional assay. The source holds these as a separate data set.

We go through 16 molecules from patent US20070055459A1 (Harvard, published 2007).

As for ATAEETRAMLHRAFDTLA [peptide E mutant R26A], the “IC50, inhibition of long chain DNA synthesis” value (“IC50, inhibition” below) in assay [1] came out at 14 µM.
For the molecule ATAEETRRMLARAFDTLA [peptide E mutant H29A], the “inhibition of long-chain DNA synthesis at 100 µM” value (shortened to “inhibition … at 100 µM”) in assay [2] is below 20 % inhibition at 100 µM. In addition, in assay [1], the “IC50, inhibition” value is above 100 µM.
Consider ATAEETRRALHRAFDTLA [peptide E mutant M27A], for which the “inhibition … at 100 µM” value in assay [2] came to 40 % inhibition at 100 µM. Besides, the “IC50, inhibition” value in assay [1] was above 100 µM.
For ATAEATRRMLHRAFDTLA [peptide E mutant E23A], the “IC50, inhibition” value in assay [1] came to 21 µM.
Take DDVAARLRAAGFGAVGAGATAEETRRMLHRAFDTLA [Peptide A (C-terminal 36 amino acid residues of HSV DNA polymerase, Pol residues 1200-1235)]: in assay [1], the “IC50, inhibition” value was determined as 1.7 µM.
For the molecule ATAEETRRMLHRAFDALA [peptide E mutant T34A], the “IC50, inhibition” value in assay [1] stood at 10 µM.
On to ATAEETARMLHRAFDTLA [peptide E mutant R25A], for which, in assay [2], the “IC50 relative to that of peptide E” value is 3 to 7 fold. In assay [1], the “IC50, inhibition” value stood at 40 µM.
As to ATAEEARRMLHRAFDTLA [peptide E mutant T24A], the “IC50 relative to that of peptide E” value in assay [2] was in the range of 3 to 7 fold. In assay [1], the “IC50, inhibition” value came out at 77 µM.
As for ATAAETRRMLHRAFDTLA [peptide E mutant E22A], the “inhibition … at 100 µM” value in assay [2] was below 20 % inhibition at 100 µM. Also, the “IC50, inhibition” value in assay [1] was above 100 µM.
As for AAAEETRRMLHRAFDTLA [peptide E mutant T20A], the “inhibition … at 100 µM” value in assay [2] was below 20 % inhibition at 100 µM. For the same molecule, in assay [1], the “IC50, inhibition” value was above 100 µM.
Turning to ATAEETRRMLHRAFDTLA [Peptide E (last 18 residues of HSV DNA polymerase, Pol residues 1218-1235)], the “IC50, inhibition” value in assay [1] was found to be 11 µM.
As to ATAEETRRMLHAAFDTLA [peptide E mutant R30A], the “inhibition … at 100 µM” value in assay [2] is below 20 % inhibition at 100 µM. In assay [1], the “IC50, inhibition” value was above 100 µM.
As for ATAEETRRMLHRAFATLA [peptide E mutant D33A], the “IC50, inhibition” value in assay [1] was found to be 50 µM.
For the molecule ATAEETRRMLHRAFDTAA [peptide E mutant L35A], the “inhibition … at 100 µM” value in assay [2] was 50 % inhibition at 100 µM. Besides, the “IC50, inhibition” value in assay [1] came to 97 µM.
As to ATAEETRRMAHRAFDTLA [peptide E mutant L28A], in assay [1], the “IC50, inhibition” value stood at 18 µM.
As for ATAEETRRMLHRAADTLA [peptide E mutant F32A], the “inhibition … at 100 µM” value in assay [2] was below 20 % inhibition at 100 µM. Besides, the “IC50, inhibition” value in assay [1] is above 100 µM.
